Tested on: T1, O=c1[nH]c(=O)c2[nH]c(=O)[nH]c2[nH]1
T1 construct: full-length human OAT10 wild-type, EGFP-fused (pEGFP-N1)
Assay: cells, lysate or membranes
Assay type: cell-based, Homo sapiens
Conditions: Cl^-

Chain of OAT10/SLC22A13 (Homo sapiens) (chain, as listed by the source): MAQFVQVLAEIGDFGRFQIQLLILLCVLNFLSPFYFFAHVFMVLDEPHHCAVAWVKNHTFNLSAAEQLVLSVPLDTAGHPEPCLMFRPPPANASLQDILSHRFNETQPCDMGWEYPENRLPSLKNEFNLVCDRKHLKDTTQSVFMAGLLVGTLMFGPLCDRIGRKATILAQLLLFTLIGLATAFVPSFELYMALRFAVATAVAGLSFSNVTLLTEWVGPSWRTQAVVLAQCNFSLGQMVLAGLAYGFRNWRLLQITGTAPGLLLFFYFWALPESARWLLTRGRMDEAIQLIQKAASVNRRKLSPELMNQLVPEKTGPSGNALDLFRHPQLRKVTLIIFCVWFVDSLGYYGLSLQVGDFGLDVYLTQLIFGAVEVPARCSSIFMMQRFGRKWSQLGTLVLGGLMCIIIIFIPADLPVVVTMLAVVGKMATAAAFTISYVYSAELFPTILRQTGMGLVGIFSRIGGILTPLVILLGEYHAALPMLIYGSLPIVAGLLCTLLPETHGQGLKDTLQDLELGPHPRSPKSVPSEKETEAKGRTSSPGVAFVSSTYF

Question: For OAT10/SLC22A13 (Homo sapiens), which Km is on record?
Answer: Its Km is 558 µM.

Reference: publication PMC9019507, “OAT10/SLC22A13 Acts as a Renal Urate Re-Absorber: Clinico-Genetic and Functional Analyses With Pharmacological Impacts” (Frontiers in Pharmacology, 2022)
